Results published in the supplement of paper PMC9732359.
± gives the uncertainty stated by the source.

Experiment: protein stability index of a GFP-peptide fusion (yeast GPS) (PSI 1-4); higher = more stable; sorted into four equal gates, so the index is relative within each strain
In short: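 Plasmids in a pooled yeast library fused tiled 17-residue yeast protein peptides downstream of GFP and also expressed Cherry. Mid-log cultures grown without leucine were sorted into four equal gates by GFP/Cherry fluorescence ratio. Each gate's plasmids were PCR-amplified and Illumina-sequenced, and reads were matched to strains by barcodes. The protein stability index is derived by multiplying each gate's read frequency by its gate number and summing the results.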

## YFLKVTFLKYFGWLLSD [IRR1]
doa10∆
  protein stability index: 1.75 ± 0.074
pdr5∆
  protein stability index: 1.59 ± 0.054
san1∆
  protein stability index: 1.88 ± 0.09
ubr1∆
  protein stability index: 1.8 ± 0.062

## RHLRRTGKVSEFISIYS [RET1]
doa10∆
  protein stability index: 1.48 ± 0.14
pdr5∆
  protein stability index: 2.05 ± 0.13
ubr1∆
  protein stability index: 1.37 ± 0.14

## TVVISQKKVPDKLLDPT [SCL1]
doa10∆
  protein stability index: 2.85 ± 0.1
pdr5∆
  protein stability index: 2.31 ± 0.085
san1∆
  protein stability index: 3.23 ± 0.064
ubr1∆
  protein stability index: 2.86 ± 0.068

## DAIIPFAAIPEQGIELE [FAS2]
doa10∆
  protein stability index: 3.12 ± 0.15
pdr5∆
  protein stability index: 2.84 ± 0.2
san1∆
  protein stability index: 3.42 ± 0.084
ubr1∆
  protein stability index: 3.41 ± 0.1

## NQQPQQQQQQQQNPKFL [SWI1]
doa10∆
  protein stability index: 2.96 ± 0.048
pdr5∆
  protein stability index: 3.02 ± 0.04
san1∆
  protein stability index: 2.989 ± 0.026
ubr1∆
  protein stability index: 2.9 ± 0.029

## YNALFQQNIKFRRDFLL [YJL039C/NUP192]
doa10∆
  protein stability index: 2.38 ± 0.096
pdr5∆
  protein stability index: 2.02 ± 0.063
san1∆
  protein stability index: 2.4 ± 0.068
ubr1∆
  protein stability index: 2.3 ± 0.055

## MVNIGLHNLNEYQIVYY [RGR1]
doa10∆
  protein stability index: 1.65 ± 0.14
pdr5∆
  protein stability index: 2.56 ± 0.1
san1∆
  protein stability index: 2.11 ± 0.11
ubr1∆
  protein stability index: 1.43 ± 0.27

## SEGSGSSLVQKGLETID [RPC53]
doa10∆
  protein stability index: 3.35 ± 0.16
pdr5∆
  protein stability index: 3.14 ± 0.14
ubr1∆
  protein stability index: 3.08 ± 0.063

## GVFDPASYSKYLIDHIK [RPL22B]
doa10∆
  protein stability index: 3.12 ± 0.051
pdr5∆
  protein stability index: 3.1 ± 0.069
san1∆
  protein stability index: 2.92 ± 0.06
ubr1∆
  protein stability index: 2.9 ± 0.043

## DPKTSLRIVKPTVSLTI [RPC82]
doa10∆
  protein stability index: 2.3 ± 0.095
pdr5∆
  protein stability index: 2.3 ± 0.084
san1∆
  protein stability index: 2.56 ± 0.14
ubr1∆
  protein stability index: 3.34 ± 0.079

## YSKSFEQFKMVSMITDH [POP1]
doa10∆
  protein stability index: 2.3 ± 0.12
pdr5∆
  protein stability index: 1.97 ± 0.23
san1∆
  protein stability index: 1.62 ± 0.26
ubr1∆
  protein stability index: 1.95 ± 0.15

## ESNRQSVIVDSKVTVPP [ESC2]
doa10∆
  protein stability index: 2.47 ± 0.11
pdr5∆
  protein stability index: 2.87 ± 0.082
san1∆
  protein stability index: 2.81 ± 0.079
ubr1∆
  protein stability index: 2.81 ± 0.048

## EFLYSKAGREELERVNV [QCR8]
san1∆
  protein stability index: 3.28 ± 0.11
ubr1∆
  protein stability index: 3.27 ± 0.17

## PLPSHALTVQEVLNRVA [YDL116W/NUP84]
doa10∆
  protein stability index: 2.29 ± 0.039
pdr5∆
  protein stability index: 2.37 ± 0.042
san1∆
  protein stability index: 2.37 ± 0.053
ubr1∆
  protein stability index: 2.33 ± 0.027

## KSNVIDSMLFVFGFRAN [SMC4]
doa10∆
  protein stability index: 2.26 ± 0.049
pdr5∆
  protein stability index: 2.39 ± 0.054
san1∆
  protein stability index: 2.16 ± 0.078
ubr1∆
  protein stability index: 2.68 ± 0.059

## LHVEQLSGGQKTVCAIA [SMC3]
doa10∆
  protein stability index: 1.58 ± 0.15
pdr5∆
  protein stability index: 2.08 ± 0.24
san1∆
  protein stability index: 2.09 ± 0.15
ubr1∆
  protein stability index: 1.82 ± 0.067

## YSIDEFFLQRKLRSELG [BRR2]
doa10∆
  protein stability index: 2.3 ± 0.12
pdr5∆
  protein stability index: 2.06 ± 0.13
san1∆
  protein stability index: 1.8 ± 0.16
ubr1∆
  protein stability index: 1.5 ± 0.22

## NQIADLSGKFSTIPTRE [ROX3]
doa10∆
  protein stability index: 2.98 ± 0.091
pdr5∆
  protein stability index: 2.96 ± 0.093
san1∆
  protein stability index: 2.81 ± 0.071
ubr1∆
  protein stability index: 3.23 ± 0.07

## TMHTKTYAAEIAHNISA [RPL32]
doa10∆
  protein stability index: 2.34 ± 0.042
pdr5∆
  protein stability index: 2.42 ± 0.04
san1∆
  protein stability index: 2.21 ± 0.051
ubr1∆
  protein stability index: 2.33 ± 0.036

## RVSLQDIKDFADKVYTK [QCR2]
doa10∆
  protein stability index: 2.85 ± 0.069
pdr5∆
  protein stability index: 3.07 ± 0.082
san1∆
  protein stability index: 2.62 ± 0.079
ubr1∆
  protein stability index: 2.67 ± 0.076

## ERVTALKNCKISNINIP [SMC1]
doa10∆
  protein stability index: 3.25 ± 0.1
pdr5∆
  protein stability index: 3.25 ± 0.12
san1∆
  protein stability index: 3.1 ± 0.066
ubr1∆
  protein stability index: 3.41 ± 0.11

## IAPPVAPHDSEATLLTN [SNF5]
doa10∆
  protein stability index: 2.99 ± 0.066
pdr5∆
  protein stability index: 2.82 ± 0.068
san1∆
  protein stability index: 2.93 ± 0.043
ubr1∆
  protein stability index: 2.83 ± 0.049

## CEISGSIEQLRNVVEDI [BRN1]
doa10∆
  protein stability index: 3.25 ± 0.18
pdr5∆
  protein stability index: 3.33 ± 0.2
san1∆
  protein stability index: 3.09 ± 0.19

## TKKTITPMGGFVHYGEI [RPL3]
doa10∆
  protein stability index: 3.2 ± 0.074
pdr5∆
  protein stability index: 3.1 ± 0.072
san1∆
  protein stability index: 3.08 ± 0.093
ubr1∆
  protein stability index: 3.01 ± 0.046

## LSRPYKALKTNINFASG [CDC53]
doa10∆
  protein stability index: 2.4 ± 0.049
pdr5∆
  protein stability index: 2.61 ± 0.062
san1∆
  protein stability index: 2.4 ± 0.057
ubr1∆
  protein stability index: 2.66 ± 0.048

## AAQTNATFLKLAAPQLV [RPT5]
doa10∆
  protein stability index: 2.62 ± 0.16
pdr5∆
  protein stability index: 3.17 ± 0.15
san1∆
  protein stability index: 2.41 ± 0.083
ubr1∆
  protein stability index: 2.86 ± 0.11

## KLKLLRMERIKDHLLLE [RPT2]
doa10∆
  protein stability index: 2.27 ± 0.079
pdr5∆
  protein stability index: 2.05 ± 0.064
san1∆
  protein stability index: 2.12 ± 0.092
ubr1∆
  protein stability index: 1.86 ± 0.054

## DEPMTTFYKCVNCGHRW [RPC11]
doa10∆
  protein stability index: 2.84 ± 0.16
pdr5∆
  protein stability index: 2.5 ± 0.082
san1∆
  protein stability index: 2.17 ± 0.15
ubr1∆
  protein stability index: 2.82 ± 0.086

## EGKRIAFGFVDRTLPHF [RPO21]
doa10∆
  protein stability index: 2.89 ± 0.058
pdr5∆
  protein stability index: 2.98 ± 0.054
san1∆
  protein stability index: 2.95 ± 0.048
ubr1∆
  protein stability index: 3.13 ± 0.035

## MIIDEGHRMKNAQSKLS [SNF2]
doa10∆
  protein stability index: 1.45 ± 0.072
pdr5∆
  protein stability index: 1.98 ± 0.061
san1∆
  protein stability index: 1.67 ± 0.089
ubr1∆
  protein stability index: 1.93 ± 0.089

## GIDPTRIYTNSFIDIME [RPO21]
doa10∆
  protein stability index: 2.64 ± 0.048
pdr5∆
  protein stability index: 2.5 ± 0.045
san1∆
  protein stability index: 2.77 ± 0.048
ubr1∆
  protein stability index: 2.53 ± 0.034

## RFRKLTSQEINDRLEAL [PRE8]
doa10∆
  protein stability index: 3.07 ± 0.14
pdr5∆
  protein stability index: 3.01 ± 0.089
san1∆
  protein stability index: 2.52 ± 0.24
ubr1∆
  protein stability index: 2.91 ± 0.11

## SQIIARNEEILRDIGEC [SMC2]
doa10∆
  protein stability index: 2.79 ± 0.077
pdr5∆
  protein stability index: 2.46 ± 0.091
san1∆
  protein stability index: 2.85 ± 0.062
ubr1∆
  protein stability index: 3.07 ± 0.084

## LLHVAVSDSNDDVRRAA [RPN2]
doa10∆
  protein stability index: 3.01 ± 0.087
pdr5∆
  protein stability index: 3.22 ± 0.076
san1∆
  protein stability index: 2.69 ± 0.12
ubr1∆
  protein stability index: 3.13 ± 0.11

## KTRVGSVTAQVYKIALR [RPC82]
doa10∆
  protein stability index: 1.27 ± 0.11
pdr5∆
  protein stability index: 1.49 ± 0.068
san1∆
  protein stability index: 1.5 ± 0.16
ubr1∆
  protein stability index: 1.15 ± 0.12

## TPEMNVTNNVEEGEFII [TAF14]
pdr5∆
  protein stability index: 2.43 ± 0.26
ubr1∆
  protein stability index: 3.62 ± 0.22

## LVHDVVYDFYGRHVATC [YGL100W/SEH1]
doa10∆
  protein stability index: 1.46 ± 0.074
pdr5∆
  protein stability index: 1.69 ± 0.06
san1∆
  protein stability index: 1.41 ± 0.12
ubr1∆
  protein stability index: 1.38 ± 0.057

## EYVYFFNNTSVIQDEVL [RPC40]
doa10∆
  protein stability index: 2.41 ± 0.15
ubr1∆
  protein stability index: 2.55 ± 0.073

## VELPYGAHGYSGFYTFS [PRE1]
doa10∆
  protein stability index: 2.92 ± 0.17
pdr5∆
  protein stability index: 2.32 ± 0.17
san1∆
  protein stability index: 2.9 ± 0.13
ubr1∆
  protein stability index: 2.83 ± 0.095

## QKMAKAKKQNRPLPQWI [RPL39]
doa10∆
  protein stability index: 2.97 ± 0.13
pdr5∆
  protein stability index: 3.07 ± 0.057
san1∆
  protein stability index: 3 ± 0.081
ubr1∆
  protein stability index: 3.14 ± 0.059

## ILNFLNQEDLFELVHHF [YML103C/NUP188]
doa10∆
  protein stability index: 2.56 ± 0.14
pdr5∆
  protein stability index: 2.8 ± 0.083
san1∆
  protein stability index: 1.88 ± 0.22
ubr1∆
  protein stability index: 2.16 ± 0.072

## AGSTGFSFGQNNNNTNT [YGR119C/NUP57]
doa10∆
  protein stability index: 2.52 ± 0.068
pdr5∆
  protein stability index: 2.5 ± 0.072
san1∆
  protein stability index: 2.32 ± 0.092
ubr1∆
  protein stability index: 2.32 ± 0.064

## VAFDNINTHIETLAYNS [SNF2]
doa10∆
  protein stability index: 2.56 ± 0.1
pdr5∆
  protein stability index: 2.85 ± 0.074
san1∆
  protein stability index: 2.5 ± 0.063
ubr1∆
  protein stability index: 1.99 ± 0.058

## GSPSLTSPQYIPSPLSS [NUT1]
doa10∆
  protein stability index: 2.56 ± 0.042
pdr5∆
  protein stability index: 2.52 ± 0.033
san1∆
  protein stability index: 2.65 ± 0.037
ubr1∆
  protein stability index: 2.52 ± 0.028

## REAYIENFAKGEHISAI [SWP82]
doa10∆
  protein stability index: 2.98 ± 0.07
pdr5∆
  protein stability index: 3.11 ± 0.089
san1∆
  protein stability index: 2.99 ± 0.061
ubr1∆
  protein stability index: 3.07 ± 0.067

## YQWNLDGLQQLDKYLYV [RPN1]
doa10∆
  protein stability index: 2.92 ± 0.068
pdr5∆
  protein stability index: 3.08 ± 0.058
san1∆
  protein stability index: 2.49 ± 0.12
ubr1∆
  protein stability index: 2.2 ± 0.046
